Laboratory results published in paper PMC6937306.
Values joined by “and” are separate entries in the source; they are usually repeats but may differ in a detail not shown here. Equal values may be shown once.

Tests used:
RAGE C2 domain (human) [1] = assay: ESI-MS under denaturing conditions; 50% acetonitrile and 0.1% formic acid added to the protein sample
RAGE C2 domain (human) [2] = assay: native MS; about 10 uM protein; 100 mM ammonium acetate for V_C1 and C2, 500 mM for V_C1_C2; nano-ESI
RAGE C2 domain (human) [3] = assay: AUC; sedimentation velocity, 20 C, 40,000 rpm, 25 mM Tris pH 7.5, 200 mM NaCl, absorbance 280 nm; c(s) distribution (bimodal f/f0 for C2)
RAGE C2 domain (human) [4] = assay: SEC-MALS; Superdex 200 Increase 10/300, 25 mM Tris-Cl, 0.2 M NaCl, pH 8.0, room temperature, no detergent; C2 fractions re-chromatographed separately
[5] = target: RAGE C2_TM_CT (C2 domain, transmembrane region and cytoplasmic tail) (human); assay: SEC-MALS; Superdex 200 Increase 10/300, 25 mM Tris-Cl, 0.2 M NaCl, pH 8.0, with 2x CMC DDM, room temperature; 'protein conjugate' analysis (ASTRA) of protein and detergent masses
[6] = target: RAGE C2_TM_CT (C2 domain, transmembrane region and cytoplasmic tail) (human); assay: ESI-MS under denaturing conditions; 50% acetonitrile and 0.1% formic acid added to the protein sample
[7] = target: RAGE C2_TM_CT Mutant 1 (four glycines in the region of the GxxxG motif mutated to alanine) (human); assay: SEC-MALS; Superdex 200 Increase 10/300, 25 mM Tris-Cl, 0.2 M NaCl, pH 8.0, with 2x CMC DDM, room temperature; 'protein conjugate' analysis (ASTRA) of protein and detergent masses
[8] = target: RAGE C2_TM_CT Mutant 2 (six amino acids that cover the GxxxG motif deleted) (human); assay: as above
[9] = target: RAGE V_C1 (V and C1 domains) (human); assay: native MS; about 10 uM protein; 100 mM ammonium acetate for V_C1 and C2, 500 mM for V_C1_C2; nano-ESI
[10] = target: RAGE V_C1_C2 (extracellular part of RAGE) (human); assay: as above
[11] = target: RAGE V_C1_C2 (extracellular part of RAGE) (human); assay: AUC; sedimentation velocity, 20 C, 40,000 rpm, 25 mM Tris pH 7.5, 200 mM NaCl, absorbance 280 nm; c(s) distribution (bimodal f/f0 for C2)
[12] = target: full-length RAGE (receptor for advanced glycation end-products) (human) (UniProt Q15109); assay: AUC; sedimentation velocity, 20 C, 42,000 rpm, 25 mM Tris pH 7.5, 200 mM NaCl with DDM; absorbance 280 nm and interference; f/fo analysis with the GUSSI Membrane Protein module for FL_RAGE
[13] = target: full-length RAGE (receptor for advanced glycation end-products) (human) (UniProt Q15109); assay: native MS; FL_RAGE about 10 uM in 600 mM ammonium acetate with 0.04% (2x CMC) Triton X-100; nano-ESI, collisional release from the micelle

Substance: RAGE C2 domain (domain or fragment)
- fraction of dimeric peaks under denaturing conditions (RAGE C2 domain (human) [1]): 27%
- stoichiometry N (RAGE C2 domain (human) [1]): 2
- fraction of dimeric signals (RAGE C2 domain (human) [2]): 33%
- stoichiometry N (RAGE C2 domain (human) [2]): 2
- percent of the total signal in the dimer (RAGE C2 domain (human) [3]): > 65%
- stoichiometry N (RAGE C2 domain (human) [3]): 2
- stoichiometry N (RAGE C2 domain (human) [4]): 2

Substance: RAGE C2_TM_CT (C2 domain, transmembrane region and cytoplasmic tail) (domain or fragment)
- stoichiometry N [5]: 2
- stoichiometry N [6]: 2 and 4 and 6

Substance: RAGE C2_TM_CT Mutant 1 (four glycines in the region of the GxxxG motif mutated to alanine) (domain or fragment)
- stoichiometry N [7]: 2 and 3

Substance: RAGE C2_TM_CT Mutant 2 (six amino acids that cover the GxxxG motif deleted) (domain or fragment)
- stoichiometry N [8]: 2

Substance: RAGE V_C1 (V and C1 domains) (domain or fragment)
- fraction of dimeric signals [9]: 12%
- stoichiometry N [9]: 2

Substance: RAGE V_C1_C2 (extracellular part of RAGE) (domain or fragment)
- fraction of dimers [10]: 11%
- stoichiometry N [10]: 2
- percent of the signal in the dimer peak [11]: 17%
- stoichiometry N [11]: 2

Substance: full-length RAGE (receptor for advanced glycation end-products) (from UniProt Q15109 23-404)
- stoichiometry N [12]: 2 and 3
- stoichiometry N [13]: 2 and 3 and 4
